# Test results from US20230167423A1, “RING NUCLEASE” (priority 2019, published 2023).
# Entries after “also recorded” stand apart in the source; their conditions may differ. Like-named read-outs stand apart in the source and are kept apart here.
# T1: HEPN family ribonuclease Csx1 (Saccharolobus solfataricus, UniProt Q97YD5)
# T1 sequence (Q97YD5 1-377): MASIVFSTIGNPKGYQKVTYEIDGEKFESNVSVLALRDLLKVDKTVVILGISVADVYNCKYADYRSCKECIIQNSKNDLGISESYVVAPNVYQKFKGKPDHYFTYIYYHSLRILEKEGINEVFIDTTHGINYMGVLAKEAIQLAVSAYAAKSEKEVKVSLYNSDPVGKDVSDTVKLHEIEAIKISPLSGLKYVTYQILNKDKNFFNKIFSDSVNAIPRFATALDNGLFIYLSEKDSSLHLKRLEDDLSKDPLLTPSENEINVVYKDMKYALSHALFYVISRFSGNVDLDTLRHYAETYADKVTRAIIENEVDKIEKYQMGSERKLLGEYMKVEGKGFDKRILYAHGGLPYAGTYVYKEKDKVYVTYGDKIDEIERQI
# B1: B. subtilis yddf: DUF1874 protein encoded by gene yddF of Bacillus subtilis, prophage origin, SEQ ID NO. 15 (protein, listed as Archael virus)
# chain: MEIAFLNSLVVTSPGFYKAEKITLDEVKQWLKHYDGRYKSFIGHKSTAQFLQKLLGIRIEQNRKTFRHMKYQKAICFSLYERYPENVLLTQRDLEKARYQFYLLTRLD
# B2: THSA-485A Tsac_2833: DUF1874 ring nuclease from Thermoanaerobacterium bacteriophage THSA-485A, SEQ ID NO. 6 (protein, listed as Archael virus)
# chain: MFIANAFSLQMLSQFPAHIDIEEVATSAVAKLDLQSAIGHADTAVVLSGILGKDIESNRVNVQLQPGDSLIVAQLMGGRLPEGSTTLPAGFSFKFFKVTVQA
# B3: SIRV1 gp29: DUF1874 ring nuclease, ORF 114a of Sulfolobus islandicus rudivirus 1 (SIRV1), SEQ ID NO. 7 (protein, listed as Archael virus)
# chain: MNKVYLANAFSINMLTKFPTKVVIDKIDRLEFCENIDNEDIINSIGHDSTIQLINSLCGTTFQKNRVEIKLEKEDKLYVVQISQRLEEGKILTLEEILKLYESGKVQFFEIIVD
# B4: Crenothrix polyspora: DUF1874 protein, sequence WP_087145848.1 from the bacterium Crenothrix polyspora, SEQ ID NO. 16 (protein, listed as Crenothrix polyspora)
# chain: MTLFIINAPILTSYGDWRFEGPLSIDKTRKLLREGFTSAIGHAASAEMLARLLAMDIPVNRIAITMEAGDRALILRLLQRLPEGKVLNHHEMMATPFELALLTKLK
# Experiments:
# cA4 [1] = experiment: Radiolabelled cA4 cleavage assay, single turnover kinetics; type: biochemical; settings: for cA4 cleavage / ring nuclease activity in vitro: 37° C., recombinant protein (FIG. 5); for cA4 cleavage single turnover rate constant: 50° C., 4 μM protein dimer, Csx1 buffer
# [2] = system: HEPN ribonuclease StCsm6′; experiment: cA6 degradation, deactivation of cA6-activated HEPN ribonuclease StCsm6′; type: biochemical, S. thermophilus
# Procedure: Ring nuclease (Tsac_2833, 2 μM dimer) was incubated with the indicated concentration of cA6 for 60 min at 37° C. […] Control c1 is RNA in the absence of protein, c2 is RNA incubated with Tsac_2833 and c3 is RNA incubated with StCsm6′ in the absence of cA6 activator. vRN—ring nuclease.
# Ring nuclease (SIRV1_114a, 2 μM; labelled “vRN”) was incubated with the indicated concentration of cA6 for 20 or 60 min at 70° C. and cooled on ice for 5 min.
# When investigating cA6 degradation capacity, THSA-485A Tsac_2833 (2 μM dimer) was incubated with cA6 (50-0.5 μM) for 20 min or 60 min at 37° C. prior to adding 0.5 μM dimer StCsm6′ and 50 nM radio-labelled RNA A1. Reactions were then left to proceed for 60 min at 37° C. before quenching reactions by phenol-chloroform extraction and visualising RNA degradation by phosphor imaging following denaturing PAGE.
# A deactivation assay was carried out using the S. thermophilus HEPN ribonuclease StCsm6′, a ribonuclease activated by cA6.
# [3] = system: recombinant type III CRISPR system from Mycobacterium tuberculosis; type: cell-based, Escherichia coli
# cyclic-di-AMP = experiment: Substrate specificity of ring nuclease by TLC: cyclic-di-AMP; type: biochemical; settings: multiple-turnover, 49 μM protein, 450 μM substrate, 70° C.
# Procedure: (§1) The reactions were then deproteinised by phenol-chloroform extraction followed by chloroform extraction and products separated by TLC. Substrate degradation was visualised and imaged under short-wave ([…]) UV light.
# [4] = target: T1, HEPN family ribonuclease Csx1; experiment: Deactivation of HEPN nuclease Csx1 in coupled assay with Csm complex and A26 RNA target; type: biochemical, Sulfolobus solfataricus
# Procedure: FIG. 4. Comparison of the kinetics of the ring nucleases disclosed herein and cellular ring nucleases in deactivating the type III CRISPR defence. • a) Top panel is a phosphor image of denaturing polyacrylamide gel electrophoresis showing activation of HEPN family ribonuclease Csx1 (0.5 μM dimer) and consequent radioactively labelled RNA A1 cleavage in a coupled assay containing type III Csm CRISPR complex carrying A26 CRISPR RNA when challenged by indicated amounts of A26 RNA target to initiate cA4 synthesis. RNA A1 is not a target of Csm. Each set of three lanes after the control (c) reaction with Csx1 and labelled non-target RNA alone, is first in the absence and then the presence the ring nuclease SIRV1 gp29 (labelled “vRN”) or S. solfataricus cellular ring nuclease (cRN) Sso2081 (2 μM dimer), respectively. Whereas the SIRV1 gp29 ring nuclease is able to degrade all cA4 generated with up to 50 nM RNA A26 target, the cellular ring nuclease deactivates Csx1 and protects substrate RNA from degradation only when less than 5 nM A26 RNA target is used to initiate cA4 synthesis. Bottom panel is a phosphor image of thin-layer chromatography with reactions as above but visualizes cA4 production, by a-ATP incorporation, in the presence of indicated amounts of A26 RNA target and absence or presence of either SIRV1 gp29 or cellular ring nuclease. […]
# cA4 [5] = experiment: cA4 degradation capacity: Csx1 activation by HPLC-purified cA4 and deactivation by ring nuclease; type: biochemical; settings: ring nuclease 2 μM dimer, Csx1 0.5 μM dimer
# Procedure: FIG. 4. […] RNA A1 is not a target of Csm. Each set of three lanes after the control (c) reaction with Csx1 and labelled non-target RNA alone, is first in the absence and then the presence the ring nuclease SIRV1 gp29 (labelled “vRN”) or S. solfataricus cellular ring nuclease (cRN) Sso2081 (2 μM dimer), respectively. Whereas the SIRV1 gp29 ring nuclease is able to degrade all cA4 generated with up to 50 nM RNA A26 target, the cellular ring nuclease deactivates Csx1 and protects substrate RNA from degradation only when less than 5 nM A26 RNA target is used to initiate cA4 synthesis. Bottom panel is a phosphor image of thin-layer chromatography with reactions as above but visualizes cA4 production, by a-ATP incorporation, in the presence of indicated amounts of A26 RNA target and absence or presence of either SIRV1 gp29 or cellular ring nuclease. Csx1 deactivation correlated with complete cA4 degradation. • b) Denaturing gel electrophoresis visualising activation of Csx1 (0.5 μM dimer) by indicated amounts of HPLC-purified cA4 (BIOLOG Life Sciences) and its subsequent deactivation when either SIRV1 gp29 ring nuclease (“vRN”) or cellular ring nuclease (2 μM dimer) is present to degrade cA4. The SIRV1 gp29 ring nuclease degrades 100-fold more cA4 than the cellular ring nuclease. Control reactions (c) show RNA incubated with SIRV1 gp29 or Csx1 in the absence of cA4, respectively. […]
# cA6 = experiment: Substrate specificity of ring nuclease by TLC: cA6; type: biochemical; settings: multiple-turnover, 49 μM protein, 450 μM substrate, 70° C.
# Procedure: as §1
# cyclic-AMP = experiment: Substrate specificity of ring nuclease by TLC: cyclic-AMP; type: biochemical; settings: multiple-turnover, 49 μM protein, 450 μM substrate, 70° C.
# Procedure: as §1
# cA4 [6] = experiment: Substrate specificity of ring nuclease by TLC: cA4; type: biochemical; settings: multiple-turnover, 49 μM protein, 450 μM substrate, 70° C.
# Procedure: as §1
# cyclic-CAMP = experiment: Substrate specificity of ring nuclease by TLC: cyclic-CAMP; type: biochemical; settings: multiple-turnover, 49 μM protein, 450 μM substrate, 70° C.
# Procedure: as §1
# cyclic-di-GMP = experiment: Substrate specificity of ring nuclease by TLC: cyclic-di-GMP; type: biochemical; settings: multiple-turnover, 49 μM protein, 450 μM substrate, 70° C.
# Procedure: as §1
molecule,measurement,setting,value
B1,cA4 cleavage / ring nuclease activity in vitro,cA4 [1],cleave cA4 rapidly
B2,cA4 cleavage / ring nuclease activity in vitro,cA4 [1],cleave cA4 rapidly
same,cA6 degradation: protection of substrate RNA from StCsm6′,[2]; 2 μM dimer pre-incubated with cA6 at 37° C.,protection of the substrate RNA; also recorded: Clear inhibition of substrate RNA cleavage
same,effect on cA4-mediated type III CRISPR immunity (plasmid transformation),[3],overcomes type III CRISPR immunity
same,effect on cA4-mediated type III CRISPR immunity (plasmid transformation),[3]; listed as Tsac_2833,effective in neutralising a cA4-mediated CRISPR defence; also recorded: reduced immunity for cA4-mediated CRISPR defence
B3,degradation of cyclic-di-AMP (TLC),cyclic-di-AMP,does not degrade; also recorded: does not recognise
same,cA4 cleavage single turnover rate constant,cA4 [1],7 ± 1 min⁻¹
same,cA4 cleavage single turnover rate constant,cA4 [1]; listed as SIRV1 gp29 (orf 114a),7.4 min⁻¹
same,de-activation of cA4-activated HEPN nuclease Csx1 compared with cRN Sso2081,[4]; over a range of RNA and cA4 concentrations (FIG. 4),far more effectively
same,amount of A26 RNA target up to which all generated cA4 is degraded / Csx1 deactivated,"[4]; ring nuclease 2 μM dimer, Csx1 0.5 μM dimer, 70° C.",up to 50 nM
same,amount of cA4 degraded relative to cellular ring nuclease,cA4 [5],100 fold
same,degradation of cA6 (TLC),cA6,rapidly degrades; also recorded: specific for the degradation
same,cA6 degradation: protection of substrate RNA from StCsm6′,[2]; 2 μM pre-incubated with cA6 for 20 or 60 min at 70° C.,clear inhibition of substrate RNA cleavage
same,cA6 degradation: protection of substrate RNA from StCsm6′,"[2]; 2 μM pre-incubated with cA6 for 20 or 60 min at 70° C., listed as SIRV1_114a",protection of the substrate RNA
same,degradation of cyclic-AMP (TLC),cyclic-AMP,does not degrade
same,degradation of cA4 (TLC),cA4 [6],rapidly degrades; also recorded: specific for the degradation
same,degradation of cyclic-CAMP (TLC),cyclic-CAMP,does not degrade; also recorded: does not recognise
same,degradation of cyclic-di-GMP (TLC),cyclic-di-GMP,does not degrade; also recorded: does not recognise
B4,cA4 cleavage / ring nuclease activity in vitro,cA4 [1],cleave cA4 rapidly
